The source of these data is PMC6197867, “Isolation and purification of recombinant immunoglobulin light chain variable domains from the periplasmic space of Escherichia coli” (PLoS ONE, 2018).

The series deals with the molecule itself. Kind of series: SEC-MALS; 1.0 mg/mL protein on HiLoad 16/60 Superdex 75 in 10 mM Tris-HCl pH 7.5, 150 mM NaCl, 0.75 mL/min, 25 °C; monomer to dimer. (SEC sorts molecules by how far they enter the pores of the column.)

B1: LEN immunoglobulin light chain variable domain (kappa 4), recombinant (domain or fragment)
VL: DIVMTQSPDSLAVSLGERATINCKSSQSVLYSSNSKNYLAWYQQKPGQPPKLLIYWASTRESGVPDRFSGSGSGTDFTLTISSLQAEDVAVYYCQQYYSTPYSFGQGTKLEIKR
notes: 114 amino acid kappa 4 light chain variable domain of the Bence Jones protein LEN, from a patient with multiple myeloma; The C-terminal Lys-His8 of pOPINO was removed by a premature stop codon; removal of the ompA leader was confirmed by mass spectrometry, so the protein has no added residues; also called VL LEN; source: E. coli C41 (DE3), periplasmic expression, osmotic shock, purified …
One may read the stoichiometry N as a count of units in the complex or per binding partner. Regarding B1, the “stoichiometry N” value worked out at 2.

B2: SMA immunoglobulin light chain variable domain (kappa 4), recombinant (domain or fragment)
VL: not shown
notes: 114 amino acid kappa 4 light chain variable domain SMA, first extracted as amyloid fibrils from a patient with AL amyloidosis; The C-terminal Lys-His8 of pOPINO was removed by a premature stop codon; the ompA leader is cleaved; also called VL SMA; source: E. coli C41 (DE3), periplasmic expression, osmotic shock, purified (isoelectric precipitation, cation exchange, SEC); not shown: ompA leader …
As to B2, the “stoichiometry N” value was 2.
